The target of the test is mTOR (mammalian target of rapamycin) (UniProt Q9JLN9 1-2549). The test can be described thus: co-immunoprecipitation of GAC proteins from Dbl-transformed cell lysates, Western blot with mTOR antibody. From the text: To test this, Dbl-transformed cells were transiently transfected with wild-type GAC, GACΔC and GAC (S103A), and then these proteins were isolated from cell lysates by immunoprecipitation.
Background: A western blot detects proteins with antibodies after separation by electrophoresis.

B1: GAC (S103A), phospho-defective mutant of mouse glutaminase C (enzyme)
chain: HPWWGGGGRAKGPGAGGLSSSPSEILQELGKGGTPPQQQQQQQQQPGAAPPAAPGPKDSPGETDAFGNSEGKEMVAAGDNKIKQGLLPSLEDLLFYTIAEGQEKIPVHKFITALKSTGLRTSDPRLKECMDMLRLTLQTTSDGVMLDKDLFKKCVQSNIVLLTQAFRRKFVIPDFMSFTSHIDELYESAKKQSGGKVADYIPQLAKFSPDLWGVSVCTVDGQRHSIGDTKVPFCLQSCVKPLKYAIAVNDLGTEYVHRYVGKEPSGLRFNKLFLNEDDKPHNPMVNAGAIVVTSLIKQGVNNAEKFDYVMQFLNKMAGNEYVGFSNATFQSERESGDRNFAIGYYLKEKKCFPEGTDMVGILDFYFQLCSIEVTCESASVMAATLANGGFCPITGERVLSPEAVRNTLSLMHSCGMYDFSGQFAFHVGLPAKSGVAGGILLVVPNVMGMMCWSPPLDKMGNSVKGIHFCHDLVSLCNFHNYDNLRHFAKKLDPRREGGDQRHSFGPLDYESLQQELALKDTVWKKVSPESSDDTSTTVVYRMESLGERS
notes: Transiently expressed in Dbl-transformed NIH 3T3 cells and isolated by immunoprecipitation; not shown: V5 tag
Turning to B1, the binding result is given as “no binding”.
